These results are taken from PMC7763228, “Structural Studies of HNA Substrate Specificity in Mutants of an Archaeal DNA Polymerase Obtained by Directed Evolution”.

Data set [1] addresses T1, TgoT_6G12 DNA polymerase (Thermococcus gorgonarius, UniProt P56689 1-773, V93Q;D141A;E143A;A485L;V589A;E609K;I610M;K659Q;E664Q;Q665P;R668K;D669Q;K671H;K67 …).
T1 sequence: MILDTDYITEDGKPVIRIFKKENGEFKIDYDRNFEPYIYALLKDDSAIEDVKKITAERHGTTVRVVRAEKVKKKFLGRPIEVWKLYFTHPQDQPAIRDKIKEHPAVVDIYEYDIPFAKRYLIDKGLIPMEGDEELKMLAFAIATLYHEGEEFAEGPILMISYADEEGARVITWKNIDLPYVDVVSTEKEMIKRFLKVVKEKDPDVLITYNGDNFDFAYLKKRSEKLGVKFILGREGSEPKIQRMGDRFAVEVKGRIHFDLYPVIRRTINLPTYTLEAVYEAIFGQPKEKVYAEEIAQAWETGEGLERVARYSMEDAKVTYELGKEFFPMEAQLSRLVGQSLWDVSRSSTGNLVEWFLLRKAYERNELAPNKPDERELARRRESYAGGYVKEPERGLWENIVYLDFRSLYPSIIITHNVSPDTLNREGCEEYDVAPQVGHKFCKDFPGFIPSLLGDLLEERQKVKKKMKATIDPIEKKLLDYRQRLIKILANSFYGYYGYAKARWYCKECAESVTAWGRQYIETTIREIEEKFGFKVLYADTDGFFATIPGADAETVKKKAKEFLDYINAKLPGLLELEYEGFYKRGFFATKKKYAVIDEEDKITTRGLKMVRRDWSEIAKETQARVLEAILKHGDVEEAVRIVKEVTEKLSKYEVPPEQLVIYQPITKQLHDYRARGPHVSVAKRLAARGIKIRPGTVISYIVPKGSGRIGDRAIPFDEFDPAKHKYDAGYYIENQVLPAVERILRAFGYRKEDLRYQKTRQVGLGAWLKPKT
The experiment in a line: X-ray crystallography; binary complex, 2.8 A; ddTTP added; 10% PEG 20K, 0.1 M MES-NaOH pH 6.5; Co-crystallization: protein 5 mg/mL with 1.5x primer-template, 5 mM ddTTP or hCTP/ddCTP, 2 mM MnCl2 (not stated for the 6G12 binary DNA complex); incubated at 4 C (binary) or room temperature; 5-10% PEG 20K, 0.1 M MES-NaOH pH 6.0-6.5; protein buffer 50 mM Tris-HCl pH 7.5, 200 mM NaCl, 0.1 mM EDTA, 1 mM DTT. The note with it: protein: recombinant, template 5' overhang 8 nt.

In data set [2] the target is T1, TgoT_6G12 DNA polymerase. The experiment in a line: X-ray crystallography; ternary complex with incoming ddTTP, 2 mM MnCl2, 3.15 A; 5% PEG 20K, 0.1 M MES-NaOH pH 6.0; Co-crystallization: protein 5 mg/mL with 1.5x primer-template, 5 mM ddTTP or hCTP/ddCTP, 2 mM MnCl2 (not stated for the 6G12 binary DNA complex); incubated at 4 C (binary) or room temperature; 5-10% PEG 20K, 0.1 M MES-NaOH pH 6.0-6.5; protein buffer 50 mM Tris-HCl pH 7.5, 200 mM NaCl, 0.1 mM EDTA, 1 mM …. The following applies: protein: recombinant, template 5' overhang 8 nt.

B1: P5-T13 primer-template (dsDNA)
DNA 1: CGCAT
DNA 2: AACGGCTAATGCG
With B1, in the data set with TgoT_6G12 DNA polymerase [1], the binding result was “binds”.

B2: P5-T13' primer-template (dsDNA)
DNA 1: CGCAT
DNA 2: AACGGCAAATGCG
Take B2: in the data set with TgoT_6G12 DNA polymerase [2], the binding result was “binds”.
